US10280205B2, “Method for treating cancer with an activated T lymphocyte that selectively recognizes a cancer cell consisting of specific peptide” (immatics biotechnologies GmbH, priority 2015, dated 2019)

Target: HLA-A*02:01 (Homo sapiens, UniProt P04439, D140Y/D185E/D98H/E176V/E277Q/G131W/G231S/I119V/I121R/I166T/I218V/L300P/L318F/N151K/N90K/P208A/P217A/Q86G/Q94H/R138H/R169H/T345S)
Experiment: MHC binding assay: UV-ligand exchange with beta2m ELISA (exchange yield)
Conditions: binding to HLA-A*02:01, β2m ELISA
Outline: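 Peptide–HLA-A*02:01 complexes formed by UV-induced exchange of a photocleavable ligand for the test peptide. Exchange products diluted 100-fold and captured on streptavidin-coated plates. Stabilized complexes detected with HRP anti-β2m (1 h, 37° C.) and TMB, A450; exchange yield reported.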

Row | Peptide exchange (MHC class I binding score, peptide exchange yield) | Substance
1 | “++” (≥20% = ++) | 559 (VTVPPGPSL; listed as Homo sapiens) [compound 559]
2 | “++” (≥20% = ++) | 220 (LLQKFVPEI; listed as Homo sapiens) [compound 220]
3 | “++” (≥20% = ++) | 574 (YLLQEPPRTV; listed as Homo sapiens) [compound 574]
4 | “+++” (≥50 = +++) | 330 (QLALKVEGV; listed as Homo sapiens) [compound 330]
5 | “+++” (≥50 = +++) | 391 (YVYPQRLNFV; listed as Homo sapiens) [compound 391]
6 | “++” (≥20% = ++) | 172 (VLYSYTIITV; listed as Homo sapiens) [compound 172]
7 | “++” (≥20% = ++) | 524 (ALIENLTHQI; listed as Homo sapiens) [compound 524]
8 | “++++” (≥75% = ++++) | 10 (FLATFPLAAV; listed as Homo sapiens) [compound 10]
9 | “+++” (≥50 = +++) | 78 (SLFSSLEPQIQPV; listed as Homo sapiens) [compound 78]
10 | “+++” (≥50 = +++) | 332 (YLISELEAA; listed as Homo sapiens) [compound 332]
11 | “+++” (≥50 = +++) | 246 (LLWEVVSQL; listed as Homo sapiens) [compound 246]
12 | “+++” (≥50 = +++) | 171 (LLLPLQILL; listed as Homo sapiens) [compound 171]
13 | “+++” (≥50 = +++) | 101 (ILVGGGALATV; listed as Homo sapiens) [compound 101]
14 | “+++” (≥50 = +++) | 296 (FMEGAIIYV; listed as Homo sapiens) [compound 296]
15 | “+++” (≥50 = +++) | 600 (ALAAPDIVPAL; listed as Homo sapiens) [compound 600]
16 | “++” (≥20% = ++) | 210 (LLLNAVLTV; listed as Homo sapiens) [compound 210]
17 | “+” (≥10% = +) | 116 (YHIDEEVGF; listed as Homo sapiens) [compound 116]
18 | “+++” (≥50 = +++) | 249 (LLDGFLVNV; listed as Homo sapiens) [compound 249]
19 | “+++” (≥50 = +++) | 1 (SLMEPPAVLLL; listed as Homo sapiens) [compound 1]
20 | “+++” (≥50 = +++) | 426 (RLADKSVLV; listed as Homo sapiens) [compound 426]

Row | Peptide exchange (MHC class I binding score, peptide exchange yield) | Substance
21 | “+++” (≥50 = +++) | 441 (ALLENPKMEL; listed as Homo sapiens) [compound 441]
22 | “++++” (≥75% = ++++) | 196 (YLYSVEIKL; listed as Homo sapiens) [compound 196]
23 | “++++” (≥75% = ++++) | 77 (ILVEADGAWVV; listed as Homo sapiens) [compound 77]
24 | “+++” (≥50 = +++) | 616 (VLIDEVESL; listed as Homo sapiens) [compound 616]
25 | “+++” (≥50 = +++) | 35 (KINDTIYEV; listed as Homo sapiens) [compound 35]
26 | “+++” (≥50 = +++) | 214 (FLLDLDPLLL; listed as Homo sapiens) [compound 214]
27 | “++” (≥20% = ++) | 393 (GLLDTQTSQVLTA; listed as Homo sapiens) [compound 393]
28 | “++” (≥20% = ++) | 431 (SLVNVVPKL; listed as Homo sapiens) [compound 431]
29 | “+++” (≥50 = +++) | 507 (KLIDDQDISISL; listed as Homo sapiens) [compound 507]
30 | “+++” (≥50 = +++) | 433 (AMLNEPWAV; listed as Homo sapiens) [compound 433]
31 | “+++” (≥50 = +++) | 28 (QLLDETSAITL; listed as Homo sapiens) [compound 28]
32 | “++++” (≥75% = ++++) | 611 (YLLDDGTLVV; listed as Homo sapiens) [compound 611]
33 | “+++” (≥50 = +++) | 158 (KLFDVDEDGYI; listed as Homo sapiens) [compound 158]
34 | “++++” (≥75% = ++++) | 19 (FMVDNEAIYDI; listed as Homo sapiens) [compound 19]
35 | “+++” (≥50 = +++) | 299 (YLLETSGNL; listed as Homo sapiens) [compound 299]
36 | “+++” (≥50 = +++) | 286 (YLFPGIPEL; listed as Homo sapiens) [compound 286]
37 | “++” (≥20% = ++) | 231 (FLSPQQPPLLL; listed as Homo sapiens) [compound 231]
38 | “+++” (≥50 = +++) | 478 (YLLHEKLNL; listed as Homo sapiens) [compound 478]
39 | “++” (≥20% = ++) | 81 (FLFSQLQYL; listed as Homo sapiens) [compound 81]
40 | “++” (≥20% = ++) | 377 (FLLDSSASV; listed as Homo sapiens) [compound 377]

The remaining lines, values behind:

Row | Substance | Peptide exchange (MHC class I binding score, peptide exchange yield)
41 | 311 (RLYTGMHTV; listed as Homo sapiens) [compound 311] | “+++” (≥50 = +++)
42 | 337 (HLLSELEAAPYL; listed as Homo sapiens) [compound 337] | “++++” (≥75% = ++++)
43 | 287 (FLNEFFLNV; listed as Homo sapiens) [compound 287] | “+++” (≥50 = +++)
44 | 444 (GLLRDEALAEV; listed as Homo sapiens) [compound 444] | “+++” (≥50 = +++)
45 | 252 (LLIGTDVSL; listed as Homo sapiens) [compound 252] | “+++” (≥50 = +++)
46 | 111 (YVWGFYPAEV; listed as Homo sapiens) [compound 111] | “+++” (≥50 = +++)
47 | 208 (KISPVTFSV; listed as Homo sapiens) [compound 208] | “+++” (≥50 = +++)
48 | 262 (LLWGDLIWL; listed as Homo sapiens) [compound 262] | “+++” (≥50 = +++)
49 | 95 (SVIPQIQKV; listed as Homo sapiens) [compound 95] | “+++” (≥50 = +++)
50 | 222 (NLIENVQRL; listed as Homo sapiens) [compound 222] | “++” (≥20% = ++)
51 | 217 (ALIHPVSTV; listed as Homo sapiens) [compound 217] | “++” (≥20% = ++)
52 | 280 (VLPDPEVLEAV; listed as Homo sapiens) [compound 280] | “+++” (≥50 = +++)
53 | 227 (ALMNTLLYL; listed as Homo sapiens) [compound 227] | “++” (≥20% = ++)
54 | 575 (YLISQVEGHQV; listed as Homo sapiens) [compound 575] | “+++” (≥50 = +++)
55 | 55 (SLLDLETLSL; listed as Homo sapiens) [compound 55] | “++++” (≥75% = ++++)
56 | 446 (QLIPALAKV; listed as Homo sapiens) [compound 446] | “+++” (≥50 = +++)
57 | 284 (ILLSQTTGV; listed as Homo sapiens) [compound 284] | “+++” (≥50 = +++)
58 | 335 (YSLSSVVTV; listed as Homo sapiens) [compound 335] | “+++” (≥50 = +++)
59 | 205 (SLYPGTETMGL; listed as Homo sapiens) [compound 205] | “+++” (≥50 = +++)
60 | 555 (YVLEGLKSV; listed as Homo sapiens) [compound 555] | “+++” (≥50 = +++)
61 | 219 (KLSDIGITV; listed as Homo sapiens) [compound 219] | “+++” (≥50 = +++)
62 | 80 (FLYDNLVESL; listed as Homo sapiens) [compound 80] | “++” (≥20% = ++)
63 | 45 (SLWQDIPDV; listed as Homo sapiens) [compound 45] | “+++” (≥50 = +++)
64 | 206 (VLQEGKLQKLAQL; listed as Homo sapiens) [compound 206] | “+++” (≥50 = +++)
65 | 485 (NVPDSFNEV; listed as Homo sapiens) [compound 485] | “+++” (≥50 = +++)
66 | 475 (LLLNEEALAQI; listed as Homo sapiens) [compound 475] | “+++” (≥50 = +++)
67 | 106 (LLYDAVHIVSV; listed as Homo sapiens) [compound 106] | “+++” (≥50 = +++)
